Results from patent US20030073824A1, “DNA encoding methymycin and pikromycin” (priority 1999, published 2003).

Legend:
[1] = biological target: A. eutrophus PHA synthase (Cupriavidus necator, UniProt P23608); conditions: read-out: apparent Km (substrate concentration at half-optimal velocity); enzyme 0.95 mg/ml; 40 or 200 μl assay volumes; FIG. 10
[2] = Storage stability of PHA synthase purified from insect cells; format: physicochemical
Description: Fraction collection tubes were prepared by addition of […] of 100 mM EDTA to provide a metalloprotease inhibitor at 1 mM immediately after HA chromatography. PHA synthase was eluted in a broad peak between 110-180 mM KPi. Fractions (3 ml) containing significant PHA synthase activity were pooled and stored at 0° C. until the entire soluble fraction had been run through the chromatographic process. Pooled fractions then were concentrated at 4° C. by use of a Centriprep-30 concentrator (Amicon) to 3.8 mg/ml. Aliquots (0.5 ml) were either flash frozen and stored in liquid N2 or glycerol was added to a final concentration of 50% and samples (1.9 mg/ml) were stored at −20° C.
PHA synthase purified from insect cells appears to be relatively stable.

[3] = biological target: the molecule itself; assay: size exclusion chromatography of native protein (forms of about 100-160 kDa and 50-80 kDa)

## 3-hydroxybutyrate CoA [HBCoA]
[1]
  Km: 2500 µM

B1: A. eutrophus PHA synthase (phbC gene product) produced in insect cells with a baculovirus vector (enzyme, Alcaligenes eutrophus, UniProt P23608 7-589, looked up)
chain: AAASTQEGKSQPFKVTPGPFDPATWLEWSRQWQGTEGNGHAAASGIPGLDALAGVKIAPAQLGDIQQRYMKDFSALWQAMAEGKAEATGPLHDRRFAGDAWRTNLPYRFAAAFYLLNARALTELADAVEADAKTRQRIRFAISQWVDAMSPANFLATNPEAQRLLIESGGESLRAGVRNMMEDLTRGKISQTDESAFEVGRNVAVTEGAVVFENEYFQLLQYKPLTDKVHARPLLMVPPCINKYYILDLQPESSLVRHVVEQGHTVFLVSWRNPDASMAGSTWDDYIEHAAIRAIEVARDISGQDKINVLGFCVGGTIVSTALAVLAARGEHPAASVTLLTTLLDFADTGILDVFVDEGHVQLREATLGGGAGAPCALLRGLELANTFSFLRPNDLVWNYVVDNYLKGNTPVPFDLLFWNGDATNLPGPWYCWYLRHTYLQNELKVPGKLTVCGVPVDLASIDVPTYIYGSREDHIVPWTAAYASTALLANKLRFVLGASGHIAGVINPPAKNKRSHWTNDALPESPQQWLAGAIEHHGSWWPDWTAWLAGQAGAKRAAPANYGNARYRAIEPAPGRYVKAKA
notes: Denatured on SDS-PAGE for the Western blots; Size exclusion chromatography used the native purified protein; also called PHB synthase; 64 kDa protein
[2]; after 7 weeks stored at −20° C. in the presence of 50% glycerol
  synthase activity remained: approximately 75%
[2]; after 7 weeks stored in liquid N2
  synthase activity remained: approximately 50%
[3]
  binding result: binds
